Fold stimulation of m7GpppG-Bcl2 5′UTR-FL-poly(A)35 mRNA (25 ng) translation in nuclease treated RRL by 1.6 pmol protein (luciferase) data for two molecules are collected here from article PMC4402527.

This assay deals with eIF2β of rabbit reticulocyte lysate (rabbit (endogenous in reticulocyte lysate)) (UniProt P41035).
Chain of UniProt P41035 (P41035 whole entry): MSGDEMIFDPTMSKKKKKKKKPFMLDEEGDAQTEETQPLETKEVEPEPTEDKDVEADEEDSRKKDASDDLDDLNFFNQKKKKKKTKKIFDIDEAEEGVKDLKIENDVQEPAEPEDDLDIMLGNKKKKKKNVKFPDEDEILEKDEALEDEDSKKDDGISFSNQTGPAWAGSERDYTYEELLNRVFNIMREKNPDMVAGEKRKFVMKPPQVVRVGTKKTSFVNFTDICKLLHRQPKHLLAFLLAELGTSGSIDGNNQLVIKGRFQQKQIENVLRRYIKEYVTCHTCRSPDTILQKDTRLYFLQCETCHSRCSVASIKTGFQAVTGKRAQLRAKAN

B1: Recombinant mutant DAP5, E862K (natural protein)
chain: MESAIAEGGASRFSASSGGGGSRGAPQHYPKTAGNSEFLGKTPGQNAQKWIPARSTRRDDNSAANNSANEKERHDAIFRKVRGILNKLTPEKFDKLCLELLNVGVESKLILKGVILLIVDKALEEPKYSSLYAQLCLRLAEDAPNFDGPAAEGQPGQKQSTTFRRLLISKLQDEFENRTRNVDVYDKRENPLLPEEEEQRAIAKIKMLGNIKFIGELGKLDLIHESILHKCIKTLLEKKKRVQLKDMGEDLECLCQIMRTVGPRLDHERAKSLMDQYFARMCSLMLSKELPARIRFLLQDTVELREHHWVPRKAFLDNGPKTINQIRQDAVKDLGVFIPAPMAQGMRSDFFLEGPFMPPRMKMDRDPLGGLADMFGQMPGSGIGTGPGVIQDRFSPTMGRHRSNQLFNGHGGHIMPPTQSQFGEMGGKFMKSQGLSQLYHNQSQGLLSQLQGQSKDMPPRFSKKGQLNADEISLRPAQSFLMNKNQVPKLQPQITMIPPSAQPPRTQTPPLGQTPQLGLKTNPPLIQEKPAKTSKKPPPSKEELLKLTETVVTEYLNSGNANEAVNGVREMRAPKHFLPEMLSKVIILSLDRSDEDKEKASSLISLLKQEGIATSDNFMQAFLNVLDQCPKLEVDIPLVKSYLAQFAARAIISELVSISELAQPLESGTHFPLFLLCLQQLAKLQDREWLTELFQQSKVNMQKMLPEIDQNKDRMLEILEGKGLSFLFPLLKLEKELLKQIKLDPSPQTIYKWIKDNISPKLHVDKGFVNILMTSFLQYISSEVNPPSDETDSSSAPSKEQLEQEKQLLLSFKPVMQKFLHDHVDLQVSALYALQVHCYNSNFPKGMLLRFFVHFYDMEIIKEEAFLAWKEDITQEFPGKGKALFQVNQWLTWLETAEEEESEEEAD
As for B1, the fold stimulation of m7GpppG-Bcl2 5′UTR-FL-poly(A)35 mRNA (25 ng) translation in nuclease treated RRL by 1.6 pmol protein (luciferase) was determined as 1.65 fold.

B2: Recombinant human DAP5 (1–907) (natural protein)
chain: MESAIAEGGASRFSASSGGGGSRGAPQHYPKTAGNSEFLGKTPGQNAQKWIPARSTRRDDNSAANNSANEKERHDAIFRKVRGILNKLTPEKFDKLCLELLNVGVESKLILKGVILLIVDKALEEPKYSSLYAQLCLRLAEDAPNFDGPAAEGQPGQKQSTTFRRLLISKLQDEFENRTRNVDVYDKRENPLLPEEEEQRAIAKIKMLGNIKFIGELGKLDLIHESILHKCIKTLLEKKKRVQLKDMGEDLECLCQIMRTVGPRLDHERAKSLMDQYFARMCSLMLSKELPARIRFLLQDTVELREHHWVPRKAFLDNGPKTINQIRQDAVKDLGVFIPAPMAQGMRSDFFLEGPFMPPRMKMDRDPLGGLADMFGQMPGSGIGTGPGVIQDRFSPTMGRHRSNQLFNGHGGHIMPPTQSQFGEMGGKFMKSQGLSQLYHNQSQGLLSQLQGQSKDMPPRFSKKGQLNADEISLRPAQSFLMNKNQVPKLQPQITMIPPSAQPPRTQTPPLGQTPQLGLKTNPPLIQEKPAKTSKKPPPSKEELLKLTETVVTEYLNSGNANEAVNGVREMRAPKHFLPEMLSKVIILSLDRSDEDKEKASSLISLLKQEGIATSDNFMQAFLNVLDQCPKLEVDIPLVKSYLAQFAARAIISELVSISELAQPLESGTHFPLFLLCLQQLAKLQDREWLTELFQQSKVNMQKMLPEIDQNKDRMLEILEGKGLSFLFPLLKLEKELLKQIKLDPSPQTIYKWIKDNISPKLHVDKGFVNILMTSFLQYISSEVNPPSDETDSSSAPSKEQLEQEKQLLLSFKPVMQKFLHDHVDLQVSALYALQVHCYNSNFPKGMLLRFFVHFYDMEIIEEEAFLAWKEDITQEFPGKGKALFQVNQWLTWLETAEEEESEEEAD
Molecule B2 yielded a fold stimulation of m7GpppG-Bcl2 5′UTR-FL-poly(A)35 mRNA (25 ng) translation in nuclease treated RRL by 1.6 pmol protein (luciferase) of 4 fold.
